A protein production outcome set (Wang et al. 2014)

Test: label from the status in PepcDB records
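Further: failed if final PepcDB status was selected cloned or expressed and not failed if soluble or beyond.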

Sequence | protein production
MASYFDEHDCEPSDPEQETRTNMLLELARSLFNRMDFEDLGLVVDWDHHLPPPAAKTVVENLPRTVIRGSQAELKCPVCLLEFEEEETAIEMPCHHLFHSSCILPWLSKTNSCPLCRYELPTDDDTYEEHRRDKARKQQQQHRLENLHGAMYT | failed
MRLFAINAGNFKLDGGAMFGVVPKSIWNKLNPADSNNLCTWATRCLLIENGKQLVLIDTGLGDKQDESFFRHYYRDTPQTWDTLLKPYGFHSSDITDVVLTHLHFDHVGGALEKKGDKIVPTFSNARYWSNTRHWDWAVEPNPREKASFLKDNLFPLQESGQLYFVDTQNLPFEWMDFIFVDGHTEQQMLPLITTPAEKKILYAADLLPSAGHIPMPYIMSYDVRPLVSMQEKERVFNQVLAEDWTVFLEHDLSNACISLQQTEKGIRLNNVFQISDFNLEHHHHHH | failed
MNSPFAAETLLFERSRPRPEALRVIYGFPNTYSVGITSLGYQLVWAQLASRADVAVSRLFTDVQEPLPRDPELVGFSFSWELDYGNLLVLLEQLGIPIWQRDRHDCHPLVFGGGPVLTANPEPFADFFDVILLGDAEPLLDPFLTTMAQVRTAARSQRLEALAHVPGIYVPSLYHVSYSHPTGPIQRIEPIKASVPPTVTKQVHRGHTLAASTVVTPLAAWENIYMVEVVRSCPELCRFCLASYLTLPFRTPSLETLIPAIERGLAVTDRLGLLGASITQHPEFPALIEHLGQPQFDHVRVSLASVRTNTVTESLAQLLSQRGSQSLTIAIETGSERLRQVINKKLETEEILAAASHAQAGGLKGLKFYGMVGLPTETDADVAATVDLFCQLKKTAPRLRLTLGCSTFVPKAHTPFQWWGVQPVAEKRLKFLKKELAKLGIEFRPESYNDSLIQALISRGDRRLAPLLEQVRHYGTSLGSYRRAFKERQGQLPDFEAYVNANWPEETVLPWQHLQSGLPTKTLENHLKRAIALEHHHHHH | failed
NIDLDVQNMAQNALKFGYDEIVKRDKDANLSTLNGAMVVVNHQSGDVLALVGGVDYEKSNYNRATQSMRQPGSSFKPFVYQVAINLGYSPMSEIADISRIFEGGAGNNEDWKPKNEGGKFLGLITLKEALTRSRNLATINLALDMGLDVLYSKLMEFGFKDIPPNLSIVLGSFGISPLEYSKFYTMFGNYGTIKDPQIIRQVQDKTGKTIMEFNSNERKVSDEAQSFLVLDMMRNVVEKGTGRNARVKDIEIAGKTGTTNKSVDAWFCGLTPEIEAIIWYGNDNNKPMRYTEGGARTAAPVFREFLTQYIEKFPDTTR | failed
EDPFQPEIKVRCVCGNSLETDSMIQVIWDELTAFIPCEDPRCHVWQHVGCVILPDKPMDGNPPLPESFYCEICRLT | not failed
KVKSGWLDKLSPQGKRMFQKRWVKFDGLSISYYNNEKEMYSKGIIPLSAISTVRVQGDNKFEVVTTQRTFVFRVEKEEERNDWISILLNALKSQSLTSQSQA | not failed
MLLSMLRFEWRYYLRQPSFYVVSFLLFLMSFLSVASNNIQIGSGGEVMKNSPFSISQTLLIMGLISMFAVVNFVGSTAIRNHQHLMEELVYSKPLSPFAYQFGRFLGSFMVVLAVFAFVPIGLMLGSFMPWVDASRFGPFALSHYVIPYLQLSVPSLLLISCLFYAMASRFRSLMALYLTAVAMLVLYTLTGEMASQPQYRTIAALLDPFALRTFAEVTRYWTISEKNHQLLELSGLVLQNRALWLVIAGVLLAMSGIFSQPTLTKKRDKKSSKVEKIPDLVPLTALAMATLPNGRLQFWTRVKFEVRQVLLTAPFVVLGALTVFNLVGPMFDDFGWYGTSNWPLTQDMVDNIAGATGLLMVIVLIYYSAEIVWRERSSGMGDIVDSVPVSNLSFWASKLVAVLIVMTLLYMLAMGTTIVFQLIKGQSNLEISQYLIRLGFYYLLPLLMTSVLAFFLQVLSPNKYAGMGLFVAYYLTTFVMANWGFGHSLYNFGQSPSVSYSDMNGYGWGLLSHSLYMIYWGAFSVMLFVLGYGLYHRGPQQSLKTRLGLLGYQLGHNGKVIIAAALVIFVGSGSYLFYQTKVVNHYLTQEETTDLQADYEKTFKQYQGMPILVTTRVNANVDIFPEQRKIAAKVMFEWQNKSDKPIEKMLVQFPEHTQAETVKINIPNTHLGEFDRRYRNAWLTFSTPVQPGQLVVGNIELVRESTGVAESGFDLSVVENGTFINNFELLPLFGYQDGYELMDRHERQKRGLAEKNRANKLEDSRFYQQNFFGVDGDFIQFEATISTSMDQIALAPGYLQKQWQQDDRQYFHYLMDSPMVNFYAIISGRYQVEKIEHHGVAVEVYYHADHSWNVTRMVESVKDSIDYYTAAFGPYQHKQMRIMEFPGYRSFAQSFANTVPYSERIGFITDLRNEDNIDPVYYVTAHEVAHQWWGHQVGAADVQGSAVISESLSQYSALMVLEHKYGDKMIRKFLKYELDRYLRGRSAESIKEQPLLRSENQQYIHYQKGSVVMMAIKDVLGEAKLNANLKAFLTRYQYRNDPFPTTLDLVSYLKQGTDEVQSRFIDESFNDITLYDLRLTNAVAKTLPDGKTQLELTIYASRKVATGKGEEAEQPLDMSIDIGAFSADPDKLKDEKQILLLEKHHLVSGENKLTITLAEKPSYVGVDPFVKLIDRDARDNIFKL | failed
MEILKKTGKFLLGVVIGVAIMMFADRYYVKGKRLIADNLPKEPVEYVNPYMGNISHLLVPTYPTVHLPNSMLRVYPERGDFTGDRLGGLPLIVTSHRGSSAFNLSPYQGDEAGLKPVIQYSYDREKIVPYRYQVYLDEANIEVDYAPSHQSAVYSLTFEKDGPAYLVFNSRNGELKCDGNTVSGFQYVDKKTKVYLYAETDKTPEKSGVLASGTVKYGKSSVEGKDAALTLAFSGQKEIGVRYGISFISTEQARKNLEREINSYDVSAIARIGRNEWNDALGKIQVSGGSENDKTVFYTSLYRCYERPVNLSEDGKYYSAFDGKIHEDGGRSFYTDDWIWDTYRATHPLRILIDKERETDIINSYLLMAQQMGTNWMPTFPEVTGDSRRMNSNHAVATVIDAWRKGVRGFDLEKAYEAARKGIEEKTLIPWSAAPSGWLDEFYKEHGYIPALKPGEKETVADVSPWEKRQPVAVTLGTAYDEWCLSQIAAELGKKEDAEYFLARSYNYRNLFNPETRFFHPKDKDGKFIEGVDYRYSGGLGARDYYDENNGYIYRWDVQHNIGDLVSLIGGNEVFTAALDSMFDTPLGMSKWQFYSFLPDHTGNVGMFSMANEPSLHIPYLYNYAGQPWKTQKRIRVLLDQWFRNDLMGVPGDEDGGGMSAFVVFSMMGFYPVTPGSPTYNIGSPVFSDVKIDLGGGNVFEIVADGASHDNKYVQSATLNGEELSGPWFDHSRITAGGVLSLKMGPKANKKWGIGNPPPSVGPMQK | failed
MKIMGFYSQVILPRLLDWSLSDPTLATYRQELLTDVTGEVLEIGFGTGLNLAYYPSHIHKITTVDVNPGMNTIAQKRIDDSGIKVQQLLLSGENLPMADNTFDSVVSTWTLCSIANVEQALQEVYRVLKPGGKFFFLEHGLSNKPNVQVWQNRLTPIQKVLADGCHLNRNIQQLVEQSFDHVELKRFTPENFPDLMAHFYKGCATKKSILEHHHHHH | not failed
MILIKKFATVASGTLMSRIFGFVREMLMAAALGTGPVSDAFNAAFRFPNTFRRFFAEGAFNAAFVPLFAKRITEDGQETACKFAEEVFGVLFSLLLLLTIAMELSMPFLVRTIIAPGFAEDATKFNATIHFTAIMFPYLTCMSLAAMMGGMLNALRRYFIAAIAPLFLNIILISVLAYAWIYQLDTWHIGLNLSWGVLAAGLLQLTLIAAALRQSGMKIFLRRPRFSSNVRKLLTLAFPAAITGGITQINLLINTNIASSQSGAVSSLMYADRLYQLPLGVIAIAIATVLLPELTRALRSKNHKETHNLQNRSIELTLLLTLPASVAFLILSTPIVSLLFERGQFTSLSTHYVAQLLKLYGLGLPAFVLIKIFIPNFFAHEDTKTPMIITGICVFINISLALILFPILSARGIVIAEITSGWMNALLLWTILIQRGYWKYDIQLIKRITCLIITTLLNTIALYYVFDVIDFLSFPLSSQASFFLRASTLAGIMVAILLVHCFAYFLLDTRSFFLTLKNFKKRL | failed
MPEITLKVDSAYPEDQGNGKARLDPSAMQALNVSPGDLVRITGKTSTVAKVWRSFESDWNMEKIRIDKYTRANASVNPGDRVTVEKVEEEIPATSVTLVSPSEISAAFPDEEDDYLISLINFPVSLDDIIPIKTFHPGPPLEFKVSAIEPENACILNKMTELVFNDDDEFDGTKAITYEDIGGLKGELKRVREMIELPIRHPELFETMGIEPPKGVLLYGPPGTGKTLIAKAVANESGAHFISIAGPEIISKYYGESEQKLREIFEEAEEEAPSIIFIDELDSIAPKREDVNGEVERRVVAQLLTMLDGITDRGQVIVIGATNRPDAIDPALRRPGRFDREIEIGVPAEADRMEILQIHTKDMPFEGMAKLKELRSSEPSETVLEKALADYEASRDKLLWMLASQAKGFVGADLAALAREAAIRALRRQIDVADIDNEKIPEEVLRKLEVTTSDFILASREVAPSAMREIALETADVSWTDIGGSRDAVRDVRESVEFPLTRKEVFAQLGIRPPKGVLLYGPPGTGKTMIAKAVAHESGANFIAVKGPELLSKWVGESEKAVRDIFKKARQVAPAIIFFDELDSLTPSRGASDGSRTTENVLNQILTEMDGIEELNDVMILAASNRPDIIDPALLRSGRFDRLVYISEPEEADRKEILAVHMQNMPIEGSSFDEAVKEVSGLNEASLESLGAKFSGKSVTIKQIKTAAGKYTKGTPLSLIEERRRLAAVLRQHAVTLSDPEKTKLIRQLAEDTAGYVGSDLEGLCREAAMHALRNQANVVTADDFAEARKKIHPTMNERVREYYISISQRFKGGLPKEAQNLIEYQ | failed
MNSNVNDRKPRLVFFQWDHQPNANAAGYLLLHMQQQVKCLSTHFDVVVINRDCDYAEICDRYEPDLTLFESGYRSHGSRRIKITNTNTHIAVPKLGLHNADAWCDRRAGFLSDMEQWGIEAYFAIATMTPEYMPAVKENLFVWPNFIDPDVYHDYGQQKVIPAMLTGQAYGLYPWRQTVFPMIRDRYPCLVSPQHAYESKLASQLLSGEAYARALNASLVVPTCGTMGGEVVRKHFEIPGAKACLVTERTPAVEAAGFVDMENCVFVDGHNVVERLDYLFAHPDEIRHITTAGYSLIHSRHTLSHRPQIYQWFMLSKGLQFGEKIIQSGPFGDLTKVQRISRQESVHIVGEASDRALLKQGDLLLEQGRVEEAKQCYARCLDYVSYLPEAKFRLAICALQQGDADRAYGLMVGLVKVTMTEYEALNPDPVEWAYFLLALICRGQFERARRLQDFYPSLSHDEFRRARLVIALLGGSGDAAVSGRYGRDRKSIHQIPDRSDSEWLAWFSDILERCQQPDLANVLRHAPVGRSGVGEKVTFLHFKRDAGWRLRLYSGVDGLMVGLHLNGLRPNVPPLPEFRYFSHLARRLVPHSQRGPLRRIRTALSRLPVGTGN | failed
MRIEVVNVSHIFHRGTPLEKKALENVSLVINEGECLLVAGNTGSGKSTLLQIVAGLIEPTSGDVLYDGERKKGYEIRRNIGIAFQYPEDQFFAERVFDEVAFAVKNFYPDRDPVPLVKKAMEFVGLDFDSFKDRVPFFLSGGEKRRVAIASVIVHEPDILILDEPLVGLDREGKTDLLRIVEKWKTLGKTVILISHDIETVINHVDRVVVLEKGKKVFDGTRMEFLEKYDPRFFTSKMLVMRRLVLKGEDPFSMSDDELLERVCNS | not failed
EGAGDALTTVAERARLLADACAGVILHPTAEGGMAIVTASTPDDPDGMVGATIEPGSPVLEQLLGGEPVFVDDSATDPRMTTHVRHRFGPSMMLPLQAGGRLIGTLALPRRRGGRPYTDLERLLATQFASQAALALVLADARRGRELLAVYEDRDRIARDLHDLVV | failed
MSCKKTEKFSETWFFKWILNNQAVVSFLILLLIGLTVLIFTKISPIFSPVIQFLTIVMLPLVISMLLYYLIKPLVLLVERTGLNRTMSILVIYAILALLLVWGISTAIPNLQDQILILLRNAPSYISRANSETERWLKLPILSNFHGDLEAMLSDFSARMINYAENFSTSALSWIGTFASTVARVTVAIILTPFILFYLLRDSQKLKHSFVSALPTRFRETTVRMLSDINNQLEGYVRGQVTVAIVIAIMFCIMFKIVGLRYGMTFGILAGFLNMIPYLGSFIAMVPVVIMGLVQGPTMLIKVLIIFVIEQTIEGRFVSPLVLGNKLSIHPITIMFILLTAGSLYGVWGVLLGIPIYASVKVIVKDIFDWYRSVSNLYQDDIEIKGQKYDVK | failed
